# Substrate: Nc1ncnc2c1ncn2[C@@H]1O[C@H](COP(=O)(O)OP(=O)(O)OP(=O)(O)O)[C@@H](O)[C@H]1O
# Test: purified protein
# Type: biochemical, Homo sapiens
# Conditions: MgCl2 UBA3 nucleotide binding pocket
row,Protein,Km [µM]
1,"UBA3 (NEDD8 activating enzyme, NAE) (Homo sapiens) (protein) ADGEEPEKKRRRIEELLAEKMAVDGGCGDTGDWEGRWNHVKKFLERSGPFTHPDFEPSTESLQFLLDTCKVLVIGAGGLGCELLKNLALSGFRQIHVIDMDTIDVSNLNRQFLFRPKDIGRPKAEVAAEFLNDRVPNCNVVPHFNKIQDFNDTFYRQFHIIVCGLDSIIARRWINGMLISLLNYEDGVLDPSSIVPLIDGGTEGFKGNARVILPGMTACIECTLELYPPQVNFPMCTIASMPRLPEHCIEYVRMLQWPKEQPFGEGVPLDGDDPEHIQWIFQKSLERASQYNIRGVTYRLTQGVVKRIIPAVASTNAVIAAVCATEVFKIATSAYIPLNNYLVFNDVDGLYTYTFEAERKENCPACSQLPQNIQFSPSAKLQEVLDYLTNSASLQMKSPAITATLEGKNRTLYLQSVTSIEERTRPNLSKTLKELGLVDGQELAVADVTTPQTVLFKLHFTS",243
2,"UBA3 A171T (NEDD8 activating enzyme, NAE (UBA3 A171T)) (Homo sapiens; A171T) (protein) ADGEEPEKKRRRIEELLAEKMAVDGGCGDTGDWEGRWNHVKKFLERSGPFTHPDFEPSTESLQFLLDTCKVLVIGAGGLGCELLKNLALSGFRQIHVIDMDTIDVSNLNRQFLFRPKDIGRPKAEVAAEFLNDRVPNCNVVPHFNKIQDFNDTFYRQFHIIVCGLDSIITRRWINGMLISLLNYEDGVLDPSSIVPLIDGGTEGFKGNARVILPGMTACIECTLELYPPQVNFPMCTIASMPRLPEHCIEYVRMLQWPKEQPFGEGVPLDGDDPEHIQWIFQKSLERASQYNIRGVTYRLTQGVVKRIIPAVASTNAVIAAVCATEVFKIATSAYIPLNNYLVFNDVDGLYTYTFEAERKENCPACSQLPQNIQFSPSAKLQEVLDYLTNSASLQMKSPAITATLEGKNRTLYLQSVTSIEERTRPNLSKTLKELGLVDGQELAVADVTTPQTVLFKLHFTS",1006

# Source: article PMC4120840
